Target: the molecule itself
Experiment: SAXS

B1: human P5 (PDIA6), full-length (enzyme, UniProt Q15084 20-440, looked up)
chain: LYSSSDDVIELTPSNFNREVIQSDSLWLVEFYAPWCGHCQRLTPEWKKAATALKDVVKVGAVDADKHHSLGGQYGVQGFPTIKIFGSNKNRPEDYQGGRTGEAIVDAALSALRQLVKDRLGGRSGGYSSGKQGRSDSSSKKDVIELTDDSFDKNVLDSEDVWMVEFYAPWCGHCKNLEPEWAAAASEVKEQTKGKVKLAAVDATVNQVLASRYGIRGFPTIKIFQKGESPVDYDGGRTRSDIVSRALDLFSDNAPPPELLEIINEDIAKRTCEEHQLCVVAVLPHILDTGAAGRNSYLEVLLKLADKYKKKMWGWLWTEAGAQSELETALGIGGFGYPAMAAINARKMKFALLKGSFSEQGINEFLRELSFGRGSTAPVGGGAFPTIVEREPWDGRDGELPVEDDIDLSDVELDDLGKDEL
stoichiometry N: 2

Reference: doi:10.1101/2020.11.17.387910 (bioRxiv, 2020)
